Assay results taken from the nanobody polyreactivity screen of Harvey et al. (2022).

Assay: yeast display, Sf9 membrane polyspecificity reagent, FACS + sequencing; frameworks hold sequencing errors
Method in brief: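 Nanobodies came from a synthetic yeast display library in Saccharomyces cerevisiae BJ5465, induced with galactose for 36–48 hours and stained for 1 hour at 4 °C with 10% biotinylated, detergent-solubilized Sf9 membrane reagent. Cells were enriched on streptavidin microbeads and then FACS-sorted, with low and high (top ~1%) gates set on anti-HA fluorescence for expression and streptavidin fluorescence for reagent binding. Each polyreactivity label reflects the gate a clone came from. Genes were amplified by colony PCR, sequenced by MiSeq 2 × 250 and filtered by CDR length.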

Row | Sequence | polyreactivity (PSR sort gate)
1 | QVQLVESGGGLVQAGGSLRLSCAASGSTFGPNTMGWYRQAPGKERELVAAISRAGRTYYADSVKGRFTISRDNAKNTVYLQMNSLKPEDTAVYYCNAGRSYHWRAGGEYDYWGQGTQVTVSS | low polyreactivity
2 | QVQLVESGVGLVQAGGSLRLSCAASGRTFGYYAMGWYRLAPGKERELVAAISSGGSTNYADSVKGRFTISRDNAKNTVYLQMNSLKPEDTAVYYCAAKAWYYPGRRNYYQYYYWGQGTQVTVSS | high polyreactivity
3 | QVQLVESGGGLVQAGGSLPLSCAASGSTFNGYAMGWYIQAPGKEWELVAVISSGGTTNYADSVKGRFTISRDNAKNTVYLQMNSLKPEDTAVYYCAADIGHRYHYRFDYWGQGTQVTVSS | low polyreactivity
4 | QVQLVESGGGLVQAGGSLRLSCAASGSIFRYYAMGWYRQAPGKERELVASINSGGSTYYADSVKGRFTISRDNAKNTVYLLMNSLKPEDTAVYYCAAETSYYYRGYWKSYDYWGQGTQVTVSS | high polyreactivity
5 | QDQHGESGGGLVQAGGRLRLSGAASGSTFPGNAMGWYRQAPGKERELVAAITSGGRTYYADSVKGRFTISRDNAKNTVYLQMNSLKPEDTAVYYCAVSTPIQRHGETYAKFDYWGQGTQVTVSS | low polyreactivity
6 | QVQLVESGGGLVQAGGSLRLSCAASGRTFGGYALGWYRQAPGKERELVATISYSSGSTYYADSVKGRFTISRDNAKNTVYLQMNSLKPEETAVYYCAARIRYFYRYDYWGQGTQVTVTS | high polyreactivity
7 | QVQLVESGGGLVQAGGTLRLSCAATRSTFYPYAMGWYRQAPGKERELVAAISDGDSTNYADSVKGRFTISRDNAKNTVSLQMNSVKPEDTAVYYCNADYVRIFYSYYGYHDYDYWGQGTQVTVSS | low polyreactivity
8 | QVQLVESGGGLVQAGGSLRLSCAASGSIFFYAMGWYRQAPGKERELVADITYTGGSKYADSVKGRFTISRDYAKNTVYLQMNSLKPEDTAVYYCAKLDGGLFDYWGQGTQVTVSS | low polyreactivity
9 | QVQLVESGGGLVQAGGSLRLSCAASGFIFDQYDMGWYRQAPGKERELVAAISDSGGSTYYADSVKGRFTISRDNAKNTVYLQMNSLKPEDTAVYYCAAGSYLAFGGLWFYYWGQGTQVTVSS | high polyreactivity
10 | QVQLVESGGGLVQAGGSLRLSCAASGSTFSGNAMGWYRQAPGKERELVAAITSGGSTNYADSVKGRFTISRDNAKNTVYLDMNSLKPEDTAVYYCAKRYGYRRYYTASDYWGQGTQVTVSS | low polyreactivity
11 | QVQLVESGGGLVQAGGSLRLSCAASGFTFAAYAMGWYRQAPVKERELVAAITNGGSTKYADSVKGRFTISRDNAKNTVYVQMNSLKPEDTSVYYCNADGFDLNVTNVSALEYDSWGQGTQVTVSS | low polyreactivity
12 | QVQLVESGGGLVQAGGSLSLSCAASGRTFVPYAMGWYRQAPGKERELVADITDGDGSTYADSVKGRFTISRDNAKNTVYLQMNSLKPEYTAVYYCAAQSRRLVTRWPVTFGYWGQGTQVTVSS | low polyreactivity
13 | QVQLVESGGGLVQAGGSLRLSCAASGSTFYYYAMGWYRQAPGKERELVAAIRSSGGSTYYADSVKGRFTISRDNAKNTVYLQMNSLKPEDTAVYYCIHYLSTYHGTFTYGYWGQGTQVTVSS | low polyreactivity
14 | QVQLVESGGGLVQAGGSLRLSCAASGFTFTYNAMGWDRQAPGKERELVAAISWSGGSTRYADSVKGRFTISRDNAKKTVYFQMNSLKPEDTGVYYFNKYTYRGRTGEINYWGQGTQVTVSS | high polyreactivity
15 | QVQLVESGGGLVQAGGSIRFSCAASGRIFAHYAMGWYRPAPGKERELVAAISSSGTRTYYADSVKGRFTISRDNAKNTVYLQMNSLKPEDTAVFYCAKDSYHTVWGGYWGQGTQVTVSS | high polyreactivity
16 | QVQLVESGGGLVQAGGSLRLSCAASGLTFRIYAMGWYRQAPGKERQLVAAISYRGGSTYYADSVKGRFTISRDNAKNTVYLQMNSLKPEDTAVYYCAAGFVLNGIRYDYWGQGTQVTVSS | high polyreactivity
17 | QVQLVESGGGLVQAGGSLRLSCAASGSTFGFYAMGWYRQAPGKERELVAAISGRGGSTYYADSVKGRFTISRDNAKNTVYLQMNSLKPEDTAVYYCNADWQDDLAGYVVDYWGLGTQVTVSS | low polyreactivity
18 | QVQLVESGGRLVHAGGSLRLSCAASGFTFSDYAMGGYRQEPGKERELVAAISTRGSSTYYADSVKGLFTISRDNEKTTVYLEMNSLKPEDTAVYYCNAVGSYSGYYYWGQGNQVTVSS | high polyreactivity
19 | QVQLVESGGGLVQAGGSLRLSCAASGSILSYYVMGWYRPAPGKERELVAAITSDGSTNYADSVKGRFTISRDNAKNTVYLQMNSLKPEDTAVYYCAAVIAWYYGVQDVYYLGLYDYWGQGTQVTVSS | low polyreactivity
20 | QVQLVESGGGLVQAGGSLRLSCAASGITFGRNTMGWYRQAPGKERELVAAIDSGGNTYADSVKGRFTISRDNEKNTVYLQMNSLKPEDTAVYYCAVDCGEFSSYGYWGQGTQVTVSS | low polyreactivity
21 | QVQLQESGGGLVQAGVSLRLSCAASGYISIEEDISWFCQAPGKERELVASITYGAITYYADSVKGRLTISSDNAKNTVYRQMNCLKPEDTAEYYCAVSYDYQQYYVSCGQGTQVTVSS | low polyreactivity
22 | QVQLVESGGGLVQAGGSLRLSCAASGFIFYDYAMGWYRQAPGKERELVAAISSGGSTNYADSVKGRFTISRDNAKNTVYLQMNSLIPEDTEVYYCAADDRSYATWKRDYDYWGQGTQVTVSS | low polyreactivity

Row | Sequence | polyreactivity (PSR sort gate)
23 | QVQLVESGGGLVQAGGSLRLSCAASGRTFYKYGMGWYRQAPGKERELVAAISWRTTSTYYADSVKGRFTISRDNAKNTVYLQMNSLKPEDTAVYYCNARRYLYFYGRGAQELDYWGQGTQVTVSS | high polyreactivity
24 | QVQLVESGGGLVQAGGSLRLSCAASGLTFGFNAMGWYRQAPGKERELVAVIDSGGSTNYADSVKGRFTISRDNAKNTVYLQMNSLKPEDTAVYYCAADYTGFYPDGSDVDYDYWGQGTQVTVSS | low polyreactivity
25 | QVQLVESGGGLVQAGGSLRLSCAASGFTFVSNDMGWYRQAPGKERELVAAIRYRGGDTYYADSVKGRFTISRDNAKNTVYLQMNSLKPEDTAVYYCAVDVATYTAGWYYHGYDYWGQGTQVTVSS | low polyreactivity
26 | QVQLVESGGGLVQAGGSLRLSCAASGSIFYRNAMGWYRQAPGKERELVAAISSDGSTNYADSVKGRFTISRDNAMNTVDLQMNSLKPEDTAVYYCAAPWTQILDYWGQGTQVTVSS | low polyreactivity
27 | QVQLVESGGGIVQAGGSLRLSCAASGFTFKYYARGWYRQAPGKERELVAAIRGSGAGTYYADSVKGRFTISRDNAKNTGYLQMNSLKPEDTAVYYCNKRWTYKWDDYWGQGTQVTVSS | high polyreactivity
28 | QVQLVESGGGIVQAGGSLRLSCAASGSIFRRNALGWYRQAPGKERELVAAISSIGSSTYYADSVKGRFTISRENAKNTVYFQMNSLKPEDTAVYYCAAVFYYATYSKKFEYWGQGTQVTVSS | high polyreactivity
29 | QVHLVESGGGLVQAGGSLRLSCAASGITFSKYEMGWYRQAPWKERELVAAITSTGSTYYADSVKGRFTISRDNAKNTVYLQMNSVKPEDTAVYYCAAERRVFYYCHKLTYWYDYWGQGTQVTVSS | low polyreactivity
30 | QVQLVESGGGLLQAGGRLRLSCAASGGIFQGYAMGWYRQAPGKERELVAAISRSGGRTYYADSVKGRFTISRDNAKNTVYLQMNSLKPEDTAVYYCAKSQSAKGGYDYWGQATQVTVSS | high polyreactivity
31 | QVQLVESGGGLVQAGGSLRLSCAASGITFYRNAMGWYRQAPGKERELVAAISWSGGRTYYADSVKGRFTISRDNAKNTVYLQMNSLKPEDTAVYYCNKYTHYYDYDYWGQGTQVTVSS | high polyreactivity
32 | QVQLVESGGGLVQAGGSLRLSCAASGFTFRYYAMGWYRQAPGKERELVAAISARGTSTYYADSVKGRFTISRDNAKITVYLQMNSLKPEDTAVYYCAARYGLYPARGYDYWGQGTQVSVSS | high polyreactivity
33 | QVQLVESGGGLVQAGGSLRLSCAASGSMFVRYAMGWYRQAPGKERELVAAISSDGNTYYADSVKGRFTISRDNAKNTVYLPRNSLKPEDTAVYYCAAKTRSRYYWGQGTQVTVSS | high polyreactivity
34 | QVQLVESGGGLVQAGGSLRLSCAASGITFGRYAMGWYRQAPGKERELVAAITWSGGSTYYADSVKGRFTISRDNSKNTVYLQMNSLKPEDTAVYYCAATWYPGRAGYYYWGQGTQVTVSS | high polyreactivity
35 | QVQLVESGGGLVQAGGSLRLSCAASGITFGRHTMGWYRQAPGKERELVAAIDSGGNTYADSVKGRFTISRDNAKNTVYLQMNSLKPEDTAVYYCAVDGGEFSSYGYWGQGTQVTVSS | low polyreactivity
36 | QVQLEESGGGLVQAGGSLRLSCAASGSIFYVNAMGWYRQAPGKERELVAAITSSGGSTYYADSVKGRFTISRDNAKNTVYLQMNSLIPEDTAVYYCAVDVYPGVFVEEGEYWGQGTQVTVSS | low polyreactivity
37 | QVQLVESGGGLLQAGGSLRLSCAASGRNFRYYAMGWYRQAPRKERELVAAITRGGRTNYADSVKGRFTISRDNAKNTVYLQMNSLKPEDSAVYYCAADYTKYYRRYYYWGQGTQVTVSS | high polyreactivity
38 | QVPLVESGGGLVQAGGSLRLSCDASGSTFFPNAMGWYRQAPGKEREFVAAISWSGGRTYYADSVKGRFTISRDNAKNTVYLQMNSLKPEDTAVYYCAARLYTVRYGYWGQGTQVTVSS | high polyreactivity
39 | QVQLVESGGGLVQAGGSLRLSCAASGSIFYSYAMGWYRQAPGKERELVAAISWDASTYYADSVKGRFTISRDNAKNTVYLQMKSLKTEDTAVYYCNADIPYYFVFDAYDYWGQGTQVTVSS | low polyreactivity
40 | QVHLVDSGGGLVQAGGSLRLSCAASGSTIRYYAMGWYRQAPGKEREMVAAITSSGTSTYYADSVKGRFTISRDNAKNTVYLQMNSLKPEDTAVYYCAAPPVYKWVSSRYDYWGQGTQVTVSS | low polyreactivity
41 | QVQLVESGGGLVQAGGSLRLSCAASGYIFSVYAMGWYRQAPGKERELVAAISSGGSTYYADSVKGRFTISRDNAKNTVYLQMNSLKPEDTAVYYCAAESEYVYWYYVDYDYWGQGTQVTVSS | high polyreactivity
42 | HVQLVESGGGLVQAGGSLRLSCAASGSIFIIYAMGWYRQAPGKERELVAAMDWSDGSTYYADSVKGRFTISRDNANNTVYLQMNSLKPEDTAVYYCNTQSRTLGWPLDYWGQGTQVTVSS | high polyreactivity
43 | QVQLVESGGGLVQAGGSLRLSCADSGSTFDYPMGWYRQAPGKERELVASITFSTGSTYYADSVKGRFTISRDNAKNTVYLQMNSLKPEDTAVYYCATGVDTYSLTVEHDSWVQGTQVTVSS | low polyreactivity
